Data on 39 variants can be found in paper PMC11969024 (2025).

B1: peptide HD2 (from tick evasin EVA4) / CCL11 (biotinylated, synthetic) (parent complex)
chain 1: EEDDYTAYAPLTCYFT
chain 2: not shown

The variants in this assay derive from B1.
Regarding chain 1 T6P, the enrichment is -4.98 log2 (difference from the parental peptide). On to chain 1 Y14K, for which the enrichment is -7.74 log2 (difference from the parental peptide). Turning to chain 1 Y14S, the enrichment was -5.39 log2 (difference from the parental peptide). Take chain 1 Y14C: the enrichment is -5.72 log2 (difference from the parental peptide). For chain 1 Y14H, the enrichment was -2.21 log2 (difference from the parental peptide). In the case of chain 1 Y14N it was -4.02 log2 (difference from the parental peptide); in that of chain 1 Y14W, -0.519 log2 (difference from the parental peptide). In the case of chain 1 Y5I it was -4.75 log2 (difference from the parental peptide); in that of chain 1 E1Y, -1.08 log2 (difference from the parental peptide); in that of chain 1 E1D, 2.04 log2 (difference from the parental peptide). The same measure for chain 1 E1W: -3.15 log2 (difference from the parental peptide); for chain 1 E2M: -1.91 log2 (difference from the parental peptide); for chain 1 E2S: -1.71 log2 (difference from the parental peptide). Turning to chain 1 L11E, the enrichment is -2.74 log2 (difference from the parental peptide). In the case of chain 1 L11F it was -0.71 log2 (difference from the parental peptide); in that of chain 1 F15Q, -0.31 log2 (difference from the parental peptide); in that of chain 1 F15D, -0.00314 log2 (difference from the parental peptide). As for chain 1 F15A, the enrichment is 0.737 log2 (difference from the parental peptide). For the variant chain 1 F15R, the enrichment is -3.27 log2 (difference from the parental peptide). Turning to chain 1 T16I, the enrichment was 0.443 log2 (difference from the parental peptide).

Consider chain 1 C13W, for which the enrichment is -7.9 log2 (difference from the parental peptide). For the variant chain 1 C13F, the enrichment is -7.62 log2 (difference from the parental peptide).

For the variant chain 1 A9H, the enrichment is -4.7 log2 (difference from the parental peptide).

In the case of chain 1 A9F, the enrichment was -8.22 log2 (difference from the parental peptide). With chain 1 A9T, the enrichment was -3.11 log2 (difference from the parental peptide). The same measure for chain 1 A9N: -5.15 log2 (difference from the parental peptide); for chain 1 T12D: -2.24 log2 (difference from the parental peptide). As for chain 1 T12R, the enrichment was -3.61 log2 (difference from the parental peptide).

Regarding chain 1 T12C, the enrichment is -6.12 log2 (difference from the parental peptide). chain 1 T12N: the enrichment was -0.967 log2 (difference from the parental peptide). chain 1 T12E: the enrichment was -1.39 log2 (difference from the parental peptide). As to chain 1 T12S, the enrichment was -1.64 log2 (difference from the parental peptide). Turning to chain 1 T12W, the enrichment was -2.96 log2 (difference from the parental peptide). With chain 1 D3K, the enrichment is -4.93 log2 (difference from the parental peptide). As for chain 1 D3F, the enrichment was -1.93 log2 (difference from the parental peptide).

On to chain 1 A7D, for which the enrichment was 2.81 log2 (difference from the parental peptide). Regarding chain 1 A7K, the enrichment was 1.27 log2 (difference from the parental peptide). Regarding chain 1 A7L, the enrichment was 0.532 log2 (difference from the parental peptide).

Turning to chain 1 P10W, the enrichment is -7.42 log2 (difference from the parental peptide).
